For the data set, the target named is T1, HEN1 Δ38-45 (Arabidopsis thaliana, UniProt Q9C5Q8 1-37+=G+46-942, internal_change).
T1 sequence: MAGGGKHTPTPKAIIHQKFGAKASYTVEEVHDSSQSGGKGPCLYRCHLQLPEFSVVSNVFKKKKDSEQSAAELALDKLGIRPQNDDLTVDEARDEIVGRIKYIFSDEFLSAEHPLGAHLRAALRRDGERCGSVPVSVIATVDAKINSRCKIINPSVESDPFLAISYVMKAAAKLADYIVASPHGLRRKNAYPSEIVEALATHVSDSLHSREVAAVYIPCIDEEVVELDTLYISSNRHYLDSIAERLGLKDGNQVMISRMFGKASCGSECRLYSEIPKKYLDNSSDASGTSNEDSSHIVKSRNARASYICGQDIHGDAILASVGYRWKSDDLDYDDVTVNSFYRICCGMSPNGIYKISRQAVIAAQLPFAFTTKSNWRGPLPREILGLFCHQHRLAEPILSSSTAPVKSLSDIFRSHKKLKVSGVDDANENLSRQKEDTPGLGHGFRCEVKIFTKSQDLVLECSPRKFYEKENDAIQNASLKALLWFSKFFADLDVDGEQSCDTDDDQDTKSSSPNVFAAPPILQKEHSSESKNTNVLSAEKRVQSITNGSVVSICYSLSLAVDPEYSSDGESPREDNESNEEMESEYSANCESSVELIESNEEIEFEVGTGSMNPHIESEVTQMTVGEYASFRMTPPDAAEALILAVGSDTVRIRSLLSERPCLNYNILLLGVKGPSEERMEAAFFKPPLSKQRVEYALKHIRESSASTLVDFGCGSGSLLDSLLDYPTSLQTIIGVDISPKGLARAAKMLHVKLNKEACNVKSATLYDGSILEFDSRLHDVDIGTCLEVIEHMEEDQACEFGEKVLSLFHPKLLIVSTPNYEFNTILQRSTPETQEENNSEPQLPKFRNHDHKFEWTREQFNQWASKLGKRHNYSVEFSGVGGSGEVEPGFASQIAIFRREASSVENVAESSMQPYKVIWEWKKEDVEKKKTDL
The experiment in a line: EMSA. A general note: Mobility shift assays separate free from complexed probe on a gel.

B1: miR173/miR173* (dsRNA)
RNA 1: UUCGCUUGCAGAGAGAAAUCAC
RNA 2: GAUUCUCUGUGUAAGCGAAAG
Broadly, the Kd is the equilibrium constant for the complex coming apart. In turn, B1 had an equilibrium dissociation constant (Kd) of 0.79 ± 0.05 nM.
